Laboratory results as given in PMC4169507.

Columns and labels:
fibronectin [1] = molecular target: fibronectin (UniProt P02751); assay: bacterial adherence to fibronectin-coated 96-well plates (colony counting); details: plates coated with 25 µg/ml of fibronectin; in the presence of arabinose; parent: 100; read off a plot
fibronectin [2] = molecular target: fibronectin (UniProt P02751); assay: SPR

| Substance | percent of parent (% of binding to Fn) (fibronectin [1]) | Kd (fibronectin [2]) |
| --- | --- | --- |
| AafA, major subunit of AAF/II, on wild type EAEC 042 R23A | 12 | – |
| AafA, major subunit of AAF/II, on wild type EAEC 042 T38L | 72 | – |
| AggBdsA (AAF/I minor subunit AggB complemented with the donor strand of AggA) (domain or fragment) | – | 100 µM |
| AafA, major subunit of AAF/II, on wild type EAEC 042 K66A | 0 | – |
| AafA, major subunit of AAF/II, on wild type EAEC 042 E131A | 75 | – |
| AafA, major subunit of AAF/II, on wild type EAEC 042 T114A | 71 | – |
| AafA, major subunit of AAF/II, on wild type EAEC 042 D14A | 99 | – |
| AafA, major subunit of AAF/II, on wild type EAEC 042 K72R | 100 | – |
| AafA, major subunit of AAF/II, on wild type EAEC 042 E57A | 76 | – |
| AafA, major subunit of AAF/II, on wild type EAEC 042 L132A | 79 | – |
| AafA, major subunit of AAF/II, on wild type EAEC 042 G69A | 81 | – |
| AafA, major subunit of AAF/II, on wild type EAEC 042 R40A | 2 | – |
| AafA, major subunit of AAF/II, on wild type EAEC 042 S30A | 65 | – |
| AafA, major subunit of AAF/II, on wild type EAEC 042 K66R | 51 | – |
| AafA, major subunit of AAF/II, on wild type EAEC 042 K72A | 6 | – |
| AafA, major subunit of AAF/II, on wild type EAEC 042 R44A | 6 | – |
| AafA, major subunit of AAF/II, on wild type EAEC 042 S73A | 80 | – |
| AafA, major subunit of AAF/II, on wild type EAEC 042 N88A | 70 | – |
| AafA, major subunit of AAF/II, on wild type EAEC 042 T77A | 67 | – |
| AggAdsA triple mutant (Lys73Ala, Lys76Ala, and Lys78Ala) (domain or fragment) | – | > 200 µM |
